Laboratory results: the supplement of paper PMC10724198

Key:
Saccharomyces cerevisiae [1] = test: protein stability index of tFT-peptide fusion in deletion strain of DAS1 (PSI (0-1 scale)); higher = more stable (slower turnover)
Procedure: (§1)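 MPS profiling in S. cerevisiae of two library types built from selected 12-aa C-degron peptides (IN1, IN2, LN1, LN3, VN2, R1-R5, W1-W3, Atg1 and Rpa12 C-termini): saturation mutagenesis libraries and C-terminal +1 capping libraries (13 aa). Each peptide is fused to the C-terminus of a sfGFP-mCherry timer, after a GGGS linker. Cells are FACS-sorted into 8 mCherry/sfGFP bins and sequenced. PSI runs from 0 (unstable) to 1 (stable), measured once in wild type and in the das1Δ or doa10Δ background.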

Saccharomyces cerevisiae [2] = test: protein stability index of tFT-peptide fusion in wild type (PSI (0-1 scale)); higher = more stable (slower turnover); conditions: genetic background: wild type
Procedure: as §1
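For protein stability index of tFT-peptide fusion in deletion strain of DAS1 in this document: PSI is a weighted mean of each variant's read distribution over the sorted stability bins, computed only for variants having over 10 reads in total.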
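For protein stability index of tFT-peptide fusion in wild type in this document: PSI derived as read-weighted mean over the 8 sorting bins, only variants exceeding 10 total reads kept, mCherry placed adjacent to the peptide and sfGFP distal.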

Sequence	protein stability index (Saccharomyces cerevisiae [1])	protein stability index (Saccharomyces cerevisiae [2])
FSMDWTFRYWVN	0.543	0.0547
FSMIWTFRYWVN	0.301	0.0367
FSMKWTFRYWVN	0.565	0.0449
FSMPWTFRYWVN	0.598	0.11
FSMRKTFRYWVN	0.577	0.0767
FSMRPTFRYWVN	0.562	0.12
FSMRWHFRYWVN	0.756	0.0543
FSMRWIFRYWVN	0.535	0.163
FSMRWMFRYWVN	0.528	0.094
FSMRWPFRYWVN	0.569	0.0756
FSMRWRFRYWVN	0.584	0.0911
FSMRWTFRMWVN	0.31	0.0197
FSMRWTFRPWVN	0.6	0.245
FSMRWTFRVWVN	0.271	0.035
FSMRWTFRYPVN	0.555	0.548
FSMRWTFRYWCN	0.516	0.081
FSMRWTFRYWVF	0.439	0.0705
FSMRWTFRYWVND	0.557	0.539
FSMRWTFRYWVNG	0.537	0.431
FSMRWTFRYWVNM	0.543	0.113
FSMRWTYRYWVN	0.504	0.0544
FTMRWTFRYWVN	0.428	0.0324
GSLAASFWRVVG	0.689	0.147

Sequence	protein stability index (Saccharomyces cerevisiae [1])	protein stability index (Saccharomyces cerevisiae [2])
GVVYLSCVACIN	0.0346	0.0144
HKHKKGQKQKIN	0.604	0.114
KFHKKGQKQKIN	0.576	0.139
KKGKKGQKQKIN	0.592	0.11
KKHGKGQKQKIN	0.707	0.0862
KKHKKGAKQKIN	0.608	0.0819
KKHKKGHKQKIN	0.592	0.111
KKHKKGQFQKIN	0.618	0.112
KKHKKGQKCKIN	0.59	0.153
KKHKKGQKQKFN	0.635	0.307
KKHKKGQKQKHN	0.653	0.439
KKHKKGQKQKIM	0.609	0.179
KKHKKGQKQKINE	0.662	0.635
KKHKKGQKQKIV	0.596	0.136
KKHKKGQKQKLN	0.602	0.133
KKHKKGQKQKTN	0.619	0.472
KKHKKGQKQNIN	0.54	0.618
KKHKKGQKQRIN	0.642	0.127
KKHKKGQKQVIN	0.629	0.579
KKHKKGQKQYIN	0.678	0.24
KKHKKLQKQKIN	0.602	0.054
KKHKKNQKQKIN	0.585	0.217
KKHKKRQKQKIN	0.587	0.0558

Sequence	protein stability index (Saccharomyces cerevisiae [1])	protein stability index (Saccharomyces cerevisiae [2])
KKHKKVQKQKIN	0.619	0.165
KKHKTGQKQKIN	0.628	0.0826
KKHWKGQKQKIN	0.594	0.112
KRGAVGGWRLVG	0.648	0.165
KSHKKGQKQKIN	0.6	0.119
KYHKKGQKQKIN	0.595	0.0981
LIILRQKMNHQN	0.661	0.152
LIVYLSCVACIN	0.0335	0.0145
LKGLRQKMNHQN	0.669	0.196
LKIKRQKMNHQN	0.683	0.208
LKILMQKMNHQN	0.687	0.244
LKILQQKMNHQN	0.676	0.163
LKILRDKMNHQN	0.677	0.232
LKILRKKMNHQN	0.662	0.224
LKILRQFMNHQN	0.664	0.192
LKILRQKKNHQN	0.678	0.312
LKILRQKLNHQN	0.676	0.187
LKILRQKMIHQN	0.682	0.196
LKILRQKMMHQN	0.62	0.232
LKILRQKMNHFN	0.675	0.21
LKILRQKMNHGN	0.672	0.47
LKILRQKMNHHN	0.688	0.247
LKILRQKMNHQF	0.678	0.255

Sequence	protein stability index (Saccharomyces cerevisiae [1])	protein stability index (Saccharomyces cerevisiae [2])
LKILRQKMNHQH	0.68	0.231
LKILRQKMNHQNC	0.661	0.606
LKILRQKMNHQNQ	0.685	0.623
LKILRQKMNHWN	0.666	0.216
LKILRQKMSHQN	0.682	0.37
LKILRQKMWHQN	0.657	0.238
LKILRQTMNHQN	0.677	0.224
LKILRVKMNHQN	0.646	0.187
LKILTQKMNHQN	0.688	0.276
LKILWQKMNHQN	0.67	0.206
LKIWRQKMNHQN	0.687	0.176
LKIYRQKMNHQN	0.689	0.182
LRGAVGGWRLVG	0.681	0.149
LSILRQKMNHQN	0.675	0.127
LSLAASFWRVVG	0.664	0.129
LVKYLSCVACIN	0.365	0.09
LVMYLSCVACIN	0.135	0.0125
LVSYLSCVACIN	0.252	0.0799
LVVVLSCVACIN	0.0377	0.0126
LVVWLSCVACIN	0.0381	0.0122
